# Reference: the supplement of paper PMC12042874
# ± gives the uncertainty stated by the source.
# Assay: amyloid nucleation score (Sup35N fusion, yeast selection) (log enrichment); library NNK3; higher = more nucleation; inactive = no reads after selection
# Summary of the method: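 Nucleation score is defined as the DiMSum log enrichment of output over input reads, with centring on the mode score of non-aggregating sequences. A minimum of 100 input reads was required for each sequence. Reads came from Illumina sequencing of plasmid inserts from psi-negative yeast expressing Sup35N fused to peptides of 20 random codons, induced with 100 μM copper sulfate for 24 hours and grown 7 days at 30°C on medium lacking adenine and uracil.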
row,Substance,amyloid nucleation score
1,WNRTEDMR,inactive
2,ARYETRMYKFKNTPGVAERR,inactive
3,IDLKGLGLYSTSEVWARQQK,inactive
4,CVNTHRY,inactive
5,SWCSPNGPQGLEVCSMRPFR,inactive
6,FVVFCRNPNSGLGNCTVSCD,inactive
7,YLTCDKTNVNGFMI,inactive
8,NTAPNISRSVIVCYYDDGEK,inactive
9,CSISNVFSVVNVSSYSWGLY,0.373 ± 0.39
10,LTMSRMMYLDKMLYFLYVQW,inactive
11,LQAYAMGNYRGDKK,inactive
12,CNNNLGVVFPRFWSIFAKGC,inactive
13,GSTTWYDLMIYLDME,inactive
14,SVVVVSWTTMLNDKLDPLDG,inactive
15,SPNWGLLGICLSTSRVQAL,1.86 ± 0.082
16,CAVGISLRPFFMISLQLSYL,inactive
17,AWSVIMCFIWNRCKRRSS,inactive
18,LTFTAVNWAVPVGRGT,inactive
19,AGFRKTMWCIQPVSFLLLKF,1.74 ± 0.1
20,DKRFELNRALLTVPWDQNRA,inactive
21,LKVNIWLPGRPFTILWSPRR,inactive
22,NWYVECYITYSLVLYLANDS,1.69 ± 0.066
23,LSAHMMSCIKVYEFGFGCVD,inactive

row,Substance,amyloid nucleation score
1,SRRNIPVGGLSNWLPVWSVG,inactive
2,RVGTAF,-0.517 ± 0.84
3,SFTLPSIGWWYALFRSYWID,inactive
4,TGIWSGYYKLFLSVLRGRRV,inactive
5,GCIMEEKFLRMDFDVVSEYN,inactive
6,TFIHRHINNTSQLPGSFMKL,inactive
7,WGMICIVYCVGIDMWLYVKC,inactive
8,TLEFHPRAINYDHRMNMFSR,inactive
9,LDEFY,inactive
10,FRAYWLYISALAHQIITMLK,inactive
11,QLLSLVKISNKLTVI,inactive
12,RHLLLTGKSWCVQACPGRTV,-0.965 ± 1.1
13,FLFRRLGRSYYKYAV,inactive
14,WCLPNCPIVFNMHQLAHLSR,0.021 ± 0.44
15,PKIAGFSGGTCTVA,inactive
16,HAGATL,inactive
17,TIPLSFFDHI,inactive
18,DYSHLCSNIQGIAFVVVIQN,inactive
19,SYKMNVMT,inactive
20,LFAIDNWVVKDSLVVWCEGR,inactive
21,MICRSSGFLYGCSWFGILYL,inactive
22,QVFLSKVCMLFDVVARVVKR,inactive
23,YNFGLVNV,inactive

row,Substance,amyloid nucleation score
1,RVIDQMNPQGGWDLTFDSRR,inactive
2,EKYRNGGY,inactive
3,CVDVSGLFGNIMEVILVMSW,inactive
4,CLSYITLPRCLCAHRFKLG,inactive
5,HNRLEAMFY,inactive
6,LRNVYTRVEITQLLTRTSGS,inactive
7,SVWLASCYHLIWVELGRWDI,inactive
8,NFVGTICLCLSYYVSVNSCC,inactive
9,WAGGSDPRCNFKCLCVKGFC,inactive
10,VSRHKFFRHSCAN,inactive
11,GVHDRLTVSRFCLGVNGDGV,inactive
12,PTAVVVGYHSYVTFRAVKCV,inactive
13,NRTQRISWIWVLTPSDVLVS,inactive
14,SFAWVS,inactive
15,FVTIRGVRRTCNPFKGINYG,inactive
16,LARVFASTGSSCSRSMNAMN,inactive
17,RCNLTCLGMIDVTIS,inactive
18,KVNTLRVEDIWTSQAFVCMV,inactive
19,RHDCIYRKV,inactive
20,LFYSRGHLSGLGLGVMAPFI,inactive
21,SVVYRKDSIKQRKEFSSHAF,inactive
22,YWVCPIGFFNCWLNRMTRLM,1.59 ± 0.12
23,YVYSRVMECKDRHYETYFVA,inactive

row,Substance,amyloid nucleation score
1,HLLIHANF,1.25 ± 0.14
2,DGAEDCRS,-1.03 ± 2.5
3,YDRAKSQRIRAQPESTSSVL,0.593 ± 0.19
4,LCLCVRFFKAFNRFNYRRFF,inactive
5,EWGTWSTY,inactive
6,EWFCLCWT,inactive
7,DVRFVRDAGAVFLIILSERH,inactive
8,GLGPSCSQYKP,inactive
9,RDPFITFWYMRIYTTGRGCV,inactive
10,RLVYPSVSSLKPIRSCWLG,inactive
11,YSFRCVSTSVNGNRVMAAVS,inactive
12,FNFLPNGWRGKVHIGYYGNT,inactive
13,VMLCHFDMYF,1.45 ± 0.092
14,HLSYKSQLS,inactive
15,PTIYRMFGVGQMVMN,inactive
16,SDWIRNG,inactive
17,SVNWMVSKLRSPNSQGLAIE,inactive
18,VEYNWSLFFNPRDFRGARDL,0.505 ± 0.27
19,PCTMDESRYLVMYFHFPMSV,inactive
20,CYIYLSMQYGEHANDIICLW,inactive
21,RHGFALRLVHSSL,inactive
22,PIWTHFRGPCGVEAIRETRV,inactive
23,CAQTYPIRMYS,inactive

row,Substance,amyloid nucleation score
1,SNLSNPLIVMKFYQAAMGVH,inactive
2,LIPASLKADRQCAHSRYSR,inactive
3,WYAKCCKV,inactive
4,LCDSGWELMYKLCTDKDMIL,inactive
5,RSILRNSLSTQMHIGSVSLM,inactive
6,TANLGRCYCKLSNFTSGWFL,inactive
7,LTTPVTR,-0.169 ± 0.63
8,ISSIYREYLLKHGMFRKRRK,inactive
9,CCMLC,-0.309 ± 1
10,MAHDEYWTGCVTGYKELEVM,inactive
11,NEMQQYSHAPSPSVVWNAGF,inactive
12,FILRDHRLSLSNCAMKCPQG,inactive
13,EGFPV,inactive
14,RSHLWGRLASYAMGTHAG,inactive
15,GILCVEMSVTSLGLIIETYF,inactive
16,YTFTRV,inactive
17,YNDNSNCSARMGLI,inactive
18,RLATYALSFPSS,inactive
19,RKLNNTSTSHGICVGAWITN,inactive
20,RNPDLVVKSQGVNRWGDSRC,inactive
21,CCITFLLSDLAMSYYVRYNR,0.484 ± 0.12
22,ARATALAVFCIGTDYGSIES,-0.319 ± 0.37
23,VLARLQLHFCSMTSDRYGLM,1.04 ± 0.11

row,Substance,amyloid nucleation score
1,REVYLMRSEPWRLLFDGKYR,inactive
2,FMVSMIIESSAGTFFMLSLV,inactive
3,DSISCCSPNITAYEFYGLTG,2.06 ± 0.066
4,MEVFFTSTFIGEFNRVCDTY,inactive
5,SNVCINLAGYDYIFFRCMMG,0.293 ± 0.24
6,SRRSMHRVVSHVREGS,-0.164 ± 0.96
7,TKKLKIPYFANFYTRFRHFK,inactive
8,FGRTHAYSLFQKKSGFLLTP,inactive
9,SYAGKGLTLQTHHDWRSGNG,inactive
10,FICVCSNWGFIQNMITAPDW,2.77 ± 0.074
11,DALRL,inactive
12,NNLMLV,inactive
13,FSTWNKRRMLYRHSGLFRQS,inactive
14,CLSLFTSGIV,inactive
15,CTHVLRNWGIKNGP,inactive
16,SGIIWQYNARLE,inactive
17,RCDVRFSWLIPSGLE,1.56 ± 0.086
18,FQRFYYLCWPSIWNMFQGGG,inactive
19,WMGSVCSFRSIPCSMSTLR,inactive
20,ISNLRSVVLWNSRLQRNRGW,inactive
21,RNSVIWNRLYRMRWV,inactive
22,FKTKDIVRKDEANSHWSMSG,inactive
23,ADCGHLTYLSSNSRSLGRRK,0.197 ± 1

row,Substance,amyloid nucleation score
1,FSDCFSRLVYPRGNNLV,inactive
2,CCFNMW,1.46 ± 0.09
3,YHSSVCTDVIYGTTYWGCAV,inactive
4,WHSYTKLCGRTSPPSSTLTG,inactive
5,FNQFHFKCSFNQCCYLNQAA,inactive
6,FLKCGRSVPGV,inactive
7,RVVLMWDYLIDF,1.08 ± 0.16
8,TIHHRCCSKWKSAWRAYWSI,inactive
9,HSVIRRFNIPMELYHMWLIS,inactive
10,QGGGVCPCPKMVSFQMMYVI,inactive
11,CAIRDS,-0.647 ± 0.41
12,ICYTALGCYISSQFSGWGRM,1.12 ± 0.088
13,MRNMCVLAIILILCFGTRFK,1.21 ± 0.08
14,VAFSFYFNSILVSVTRIVGS,0.773 ± 0.15
15,RYKRTGIWCFECNRVLVEVF,inactive
16,KINVD,inactive
17,IRYALTINYSNTVL,0.457 ± 0.24
18,LYKSNPLFPCQFCLISGKFC,0.868 ± 0.12
19,LRSVLSVGGEMAYINCNQLL,inactive
20,KQVKMGVA,inactive
21,FWIWIWRIWYDGNEDNLDHF,inactive
